Laboratory results from patent publication US20150307621A1 (Kyowa Kirin, published 2015).

Key:
[1] = target: T1, CD98 on human peripheral blood monocytes, PHA-activated T cells and activated B cells (human, UniProt P08195 2-529); test: FACS with FITC-labeled antibody 5 µg/mL on human peripheral blood cells
T1 sequence: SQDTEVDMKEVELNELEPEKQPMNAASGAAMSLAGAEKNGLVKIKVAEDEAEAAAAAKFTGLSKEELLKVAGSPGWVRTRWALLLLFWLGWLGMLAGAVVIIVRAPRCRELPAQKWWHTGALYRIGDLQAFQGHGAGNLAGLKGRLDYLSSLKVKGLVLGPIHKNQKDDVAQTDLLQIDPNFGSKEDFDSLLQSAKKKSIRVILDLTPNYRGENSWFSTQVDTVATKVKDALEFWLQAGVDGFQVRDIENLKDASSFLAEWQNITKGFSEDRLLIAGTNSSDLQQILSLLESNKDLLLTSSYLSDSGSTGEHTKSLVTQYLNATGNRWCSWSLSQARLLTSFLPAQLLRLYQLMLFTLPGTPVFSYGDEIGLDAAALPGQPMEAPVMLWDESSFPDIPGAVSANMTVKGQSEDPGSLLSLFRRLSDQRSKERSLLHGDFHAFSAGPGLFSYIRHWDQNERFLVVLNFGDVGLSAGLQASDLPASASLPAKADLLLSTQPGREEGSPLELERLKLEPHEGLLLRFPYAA

[2] = target: T2, CD98 on normal human aortic endothelial cells (HAEC) (human, UniProt P08195 2-529); test: FACS on cultured HAEC, antibody 3.2 ng/mL to 50 µg/mL
T2 sequence: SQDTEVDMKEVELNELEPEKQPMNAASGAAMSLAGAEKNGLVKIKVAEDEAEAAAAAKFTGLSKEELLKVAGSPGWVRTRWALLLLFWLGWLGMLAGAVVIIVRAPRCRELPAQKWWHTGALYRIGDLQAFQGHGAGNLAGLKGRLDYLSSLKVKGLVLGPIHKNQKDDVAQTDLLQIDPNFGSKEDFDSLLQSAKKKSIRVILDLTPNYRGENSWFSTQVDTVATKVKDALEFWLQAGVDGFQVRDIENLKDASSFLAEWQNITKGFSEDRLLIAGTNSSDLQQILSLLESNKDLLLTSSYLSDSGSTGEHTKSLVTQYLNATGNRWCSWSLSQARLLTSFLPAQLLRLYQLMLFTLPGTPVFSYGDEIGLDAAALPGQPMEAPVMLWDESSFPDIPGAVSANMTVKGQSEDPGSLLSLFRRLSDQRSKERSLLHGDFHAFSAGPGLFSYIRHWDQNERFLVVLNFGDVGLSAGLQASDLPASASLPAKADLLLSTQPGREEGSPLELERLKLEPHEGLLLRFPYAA

[3] = target: T3, mouse CD98 (mouse, UniProt P10852 1-526, limits assumed); test: not described at this place
T3 construct: also called mCD98
T3 sequence (looked up): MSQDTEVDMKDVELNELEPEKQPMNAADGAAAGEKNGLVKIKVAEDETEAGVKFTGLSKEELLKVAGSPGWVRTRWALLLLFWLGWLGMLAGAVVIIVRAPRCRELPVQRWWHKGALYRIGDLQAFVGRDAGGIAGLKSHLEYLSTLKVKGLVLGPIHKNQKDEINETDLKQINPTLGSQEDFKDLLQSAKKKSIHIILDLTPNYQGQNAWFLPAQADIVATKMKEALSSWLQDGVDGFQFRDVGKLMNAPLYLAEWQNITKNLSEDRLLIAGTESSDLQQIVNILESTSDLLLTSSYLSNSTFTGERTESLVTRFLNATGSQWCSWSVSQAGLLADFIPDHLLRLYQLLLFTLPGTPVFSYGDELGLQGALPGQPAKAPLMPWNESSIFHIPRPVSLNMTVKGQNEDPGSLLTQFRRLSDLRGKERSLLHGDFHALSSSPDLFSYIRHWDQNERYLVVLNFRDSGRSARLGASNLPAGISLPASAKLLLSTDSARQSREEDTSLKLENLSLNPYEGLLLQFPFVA

[4] = target: T4, human CD98 (human, UniProt P08195 2-529); test: FACS, antibody 5 µg/mL, hCD98-expressing L929 cells
T4 construct: also called hCD98; 4F2
T4 sequence: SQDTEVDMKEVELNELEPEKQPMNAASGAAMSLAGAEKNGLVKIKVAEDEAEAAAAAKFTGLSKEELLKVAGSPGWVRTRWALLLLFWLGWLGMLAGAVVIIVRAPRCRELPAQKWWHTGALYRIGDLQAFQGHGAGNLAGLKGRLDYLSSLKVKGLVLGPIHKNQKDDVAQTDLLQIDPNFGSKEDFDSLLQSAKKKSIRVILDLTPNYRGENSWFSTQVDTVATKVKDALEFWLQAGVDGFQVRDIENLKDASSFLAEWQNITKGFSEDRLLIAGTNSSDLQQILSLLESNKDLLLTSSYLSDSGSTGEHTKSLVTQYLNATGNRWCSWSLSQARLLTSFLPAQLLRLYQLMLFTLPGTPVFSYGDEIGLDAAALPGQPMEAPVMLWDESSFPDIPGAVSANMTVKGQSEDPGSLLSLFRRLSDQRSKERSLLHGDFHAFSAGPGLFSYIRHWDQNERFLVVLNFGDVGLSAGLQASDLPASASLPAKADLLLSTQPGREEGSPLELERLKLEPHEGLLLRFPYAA

[5] = target: T5, human LAT1-EGFP on L929 cells (human, UniProt Q01650 1-507); test: FACS on hLAT1-E-expressing L929 cells
T5 construct: L929 cells transfected with pEF1/hLAT1-EGFP alone; also called hLAT1-E; hLAT1-EGFP; not shown: EGFP and the short vector-encoded linker (pEGFP-N1) at the C terminus of hLAT1

[6] = target: T6, human CD98/human LAT1-EGFP complex on transfected CT26 or L929 cells (human, UniProt P08195 1-529; Q01650 1-507, CD98 and LAT1 are linked by a disulfide bond on the cell membrane); test: FACS, antibody 5 µg/mL, transfected CT26 or L929 cells
T6 construct: also called hCD98/hLAT1-E; hCD98/hLAT1; not shown: EGFP and the short vector-encoded linker (pEGFP-N1) fused to the intracellular C terminus of hLAT1
T6 sequence (Q01650 whole entry, the tested form may be a part, one chain of several): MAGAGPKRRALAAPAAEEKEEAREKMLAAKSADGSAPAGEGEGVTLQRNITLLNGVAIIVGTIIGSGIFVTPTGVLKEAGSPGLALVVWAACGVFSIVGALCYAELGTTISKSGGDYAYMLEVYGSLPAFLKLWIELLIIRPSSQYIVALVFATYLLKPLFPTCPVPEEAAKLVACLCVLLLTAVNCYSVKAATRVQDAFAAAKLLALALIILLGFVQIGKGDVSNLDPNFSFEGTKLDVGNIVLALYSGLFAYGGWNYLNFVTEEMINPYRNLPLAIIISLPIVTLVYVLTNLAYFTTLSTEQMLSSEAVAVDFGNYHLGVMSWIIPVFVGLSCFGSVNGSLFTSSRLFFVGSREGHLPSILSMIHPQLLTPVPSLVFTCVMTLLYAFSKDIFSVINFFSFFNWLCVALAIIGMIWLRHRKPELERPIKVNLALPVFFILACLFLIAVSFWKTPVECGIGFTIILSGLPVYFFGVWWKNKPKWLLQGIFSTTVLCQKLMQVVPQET

T5 sequence (Q01650 whole entry): as the sequence (Q01650 whole entry, the tested form may be a part, one chain of several) above

B1: human anti-CD98 monoclonal antibody K3 (antibody, V domains shown)
VH: EVQLVQSGAEVKKPGESLKISCKGSGYRFTDYWIGWVRQMPGKGLEWMGIFYPGDSDARYSPSFQGQVTISADKSINTAYLQWSSLKASDTAMYYCARRRDIVGGTDYWGQGTLVTVSS
VL: EIVLTQSPATLSLSPGERATLSCRASQSVSSYLDWYQQKPGQAPRLLIYDASSRATGIPARFSGSGSGTDFTLTISSLEPEDFAVYYCQQRSNWITFGQGTRLEIK
notes: Recombinant human IgG1/kappa (variable regions put into the N5KG1-Val Lark vector); The entries begin with the leader peptide; FITC-labelled in some assays; also called 4-32-9; K3IgG1
binding result [1]: binds
binding result [2]: binds
binding result [3]: no binding
binding result [4]: binds
binding result [5]: no binding (tested: 5 µg/mL)
binding result [6]: binds

B2: human anti-CD98 monoclonal antibody 1-40-1 (antibody, V domains shown)
VH: EVQLVESGGGVVRPGGSLRLSCAASGFTFDDYGMTWVRQAPGKGLEWVSTISWNGGGTGYADSVKGRFTISRDNAKNSLYLQMNSLRAEDTALYYCAGYCIITGCYADYWGQGTLVTVSS
VL: EIVLTQSPATLSLSPGERATLSCRASQSVSSYLAWYQQKPGQAPRLLIYDASNRATGIPARFSGSGSGTDFTLTISSLEPEDFAVYYCQQRSNWWTFGQGTKVEIK
notes: Recombinant human IgG1/kappa (N5KG1-Val Lark vector); Entries begin with the leader peptide; also called 1-40-1IgG1
binding result [1]: binds
binding result [2]: binds
binding result [3]: no binding
binding result [4]: binds
binding result [5]: no binding (tested: 5 µg/mL)
binding result [6]: binds

B3: human anti-CD98 monoclonal antibody C2IgG1 (antibody, V domains shown)
VH: QLQLQESGPGLVKPSETLSLTCTVSGGSISSSSYYWGWIRQPPGKGLEWIGSIYYSGSTYYNPSLKSRVTISVDTSKSQFFLKLSSVTAADTAVYYCARQGTGLALFDYWGQGTLVTVSS
VL: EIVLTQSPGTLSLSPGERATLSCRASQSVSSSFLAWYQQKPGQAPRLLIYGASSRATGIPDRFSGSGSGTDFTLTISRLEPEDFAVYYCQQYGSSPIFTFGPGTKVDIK
notes: Recombinant IgG1/kappa form of the C2 hybridoma antibody (hybridoma C2 is IgM); The entries begin with residues translated from the cloning site (STT, RSLT) and the leader peptide; also called 4-35-14
binding result [3]: no binding
binding result [5]: no binding (tested: 5 µg/mL)

B4: human anti-CD98 monoclonal antibody 3-69-6 (antibody, V domains shown)
VH: QVQLVQSGAEVKKPGASVKVSCKASGYTFTSYGISWMRQAPGQGLEWMGWISAYNGNTNYVQKFQDRVTMTRDTSTSTAYMELRSLRSDDTAVYYCARDRGSNWYGWFDPWGQGTLVTVSS
VL: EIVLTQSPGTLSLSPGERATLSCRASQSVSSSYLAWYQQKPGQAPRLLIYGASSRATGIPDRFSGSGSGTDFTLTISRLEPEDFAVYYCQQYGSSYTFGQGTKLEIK
notes: Recombinant human IgG1/kappa (N5KG1-Val Lark vector); Entries begin with residues translated from the cloning site (RRPT, RSLT) and the leader peptide; also called 3-69-6IgG1
binding result [3]: no binding
binding result [5]: no binding (tested: 5 µg/mL)
